Measured values taken from the DeepSol protein solubility set.

Assay: soluble on expression in E. coli; label from the status in PepcDB or PDB records

| Sequence | soluble on expression in E. coli |
| --- | --- |
| MDFLNDFDPSDDENNCKHQEKPTYLPFKPNFHEKYWYRNALKENQTATAITEIDLFRVADCYHNGDFECAENILTGLRESTKNNRTHEIMLIDSLLQCSIKKTSELSSPETSISLQFLSYYESILVDFGDQIQFLRTKAFLLSKLPFTSNYQKEFKNTMALLCQLCGSFENWQLFEIGSKYFTKLEMFGLKLKMKKVLKYEIDHSKGFIQEKLKKRLEKITKELNELEGELESNIIESIHSSINSHKDTTTVESTPNSEFRAHESRSKNKLIPVSDQPATIEDFFHRFPFLSF | not soluble |
| MRLFFSLLILLSFFARATEPVQVFTDDLGRKVTVPAHPKRIVSLHDLDITIPLIELGVPPVASHGRTRPDGSHFIRSGALLTGVDFDNSSIAFIGTADIDIEAIVAAKPDLIITEPTRNTPIERLEKIAPTVSIDHLKGGAPEIYRKLAELTGTQSQLAILERRYQAQINALKATLDSQKITVSVIQANQGKINVMHSYHSLGRVLRDAGFRFPPLIESIPEGGRMDVSAERLPELDADFVFATWRGDTGGKPQDELAAMEKVMPGWCQFLTACRSGRYVLISREEAISNSFASLGLMAAQIQSQIAGRPLPEAK | soluble |
| MEEMSMEKIVNDILKEEVYYEKLQNGLDVYFMPKRGFMKKYAILATNYGSNDLEFVPIGEDKKIRVNEGIAHFLEHKMFEQPDGGDAFDKFSKLGVNANAFTNFTMTAYLFSATENFYESLEHLIDYVQTPYFTDENVEKEKGIIAQEIKMYNDDPDWNVYFNCLKAMYVNYPARIDIAGTVDSIYKITKEELYKCYNTFYNPGNMALFVVGDLDVEKVIDVTKKS | not soluble |
| MKEFIIKANKAVTNGEINLKDLPGSSGRLDLLCRCVNSAFFLSHDMRRDTIFYSVNYGSPNPPVALKFVGSELKRVSPDERSIALFIKKALEKDASELWKESTSGIYSSKREFRDIILEKKNEGKRIFYLHLNGKPLEDFEFKNQDDEDFLFVLGDHIGIGDEDEEFLEEIGAEKISLSPLELHADHCIILVHNILDRLK | not soluble |
| MAHHHHHHMTLENKALLCLIKKYEEKNKFLNVVEYIHYVCTNLYSYEENLNYNIMYDEFLKDLKKYLKENILDYKHILENILLKTDINYVNEQNIVNDILSKKKIYDISFEEVKNTTMKSEYSMENIKTSVKTENKDISLNKEECNKDDHVQEDNIDKYNGLEGKNREKNICRNWKDEKSQHEFYQLQSFEKNENREWFRVDPNLNWKEKQQLIYNEIEKLKNEIKKITVHSESTKIIISSMICQSKIFLYELEDNIKDYKILKEKIMNDKYLLKKGDYINEVYNGIIQNQRIKIDNVKKTNKTLLNLYNKKFSNINYIISLNENINNVDFLYLNVLIHNRKETPQPYEQLQNKIPEYTNKEKEIFSNIEKNNDSLNLLDNLIVDITNKIDTNMDITNK | not soluble |
| MSLLHKDYHHFALTALEERKLAQLPPYSFLSLFRAEANHTAQVEDFLRQVRETLRCNPWFDSECMVLGPTPAPLAKRAGKFRWQLLLQTPNRTLMQKILQSARPALQQLPLASKVRWSIDIDPQDLSEGHHHHHH | soluble |
| MSEAAHSGAAPADLVELGRIASAYGVKGWVKVQPHSAQAEVLRTVSHWWLTRPAPQAARGVVASVPRAYQVLQARVHGGAVVAQLAGIDDRDQAEALRGCLVQAARSAFPAPADDEYYWVDLIGCALYSDADGESRLLGVVDEVFDNGAHAVLKVLRQQLQPGQPGPVPLVDPKGRPLEELVPFVRAHIRHVDLAARRIDSDWPLDYLEHHHHHH | soluble |
| MGHHHHHHSHMSEDNRPLTGLAAAIAGAKLRKVSRMEDTSFPSGGNAIGVNSASSKTDTGRGNGPLPLGGSGLMEEMSALLARRRRIAEKGSTIETEQKEDKGEDSEPVTSKASSTSTPEPTRKPWERTNTMNGSKSPVISRPKSTPLSQPSANGVQTEGLDYDRLKQDILDEMRKELTKLKEELIDAIRQELSKSNTA | not soluble |
| MGSDKIHHHHHHMLICATCAVERDEPAPELCPICTDERQYVPEEGQKWLTLDGLAQQGQQTVLRENEPGLIGIRTEPKVGIGQTAQLVVTHEGSLLWDPVGYVDDSAVNAALERGPVLAIAASHPHMFGVQVEWSHRLGGVPVLVADADRRWLGRNDPVIEYWSGSHTIAEGLTLHQTGGHFPGSAVVHWAAGAAGRGVLLTGDSVYPNPDRRSISFMRSYPNHLPLSGAVALRIAAQLGELEFDRIYGNFNNVIASGAKAALHDSAQRHAAWARGDFDHLT | not soluble |
| MAHHHHHHMDAPVNVFLRFGLSHSERLNHLLERVGTAQAAFRIVGPRQQEGVARTPAHPHDGADCARVGAPFSVHSGSCSHTCKGEAHDELCASLARLPPLPSPPPASHTCYCLHRTRFRCFCFPSPSLLQRRTLGGGGIGVGRAADVQHPFNGQEPALSVYFTHCHAGLRRTSPRCLISYCGRVSSLRFAFPLGDQVTFFVPLFHTDTSSMGTTHEYEPPVAMKPLEELTDADRREMRDLGIGEGMFNCILTSCMKFALSGGWSVRKHDAKYDIVWETKPSQNSNKQAMRFTAKVPNCNTGSLEAILVADEYLEDDPNVSYMYKYDRLLQQNHAEKRIAGNVTVQSTHYGAPVMFVAPRHIISYVTLGALLTPAQQKELWIRPTGLRDQLADAERKDDLMAFTQCCIDYTGDAVELRKGSERGHVYSYSLLGQEEPDGSMTVTMTLDIDPAGKLPAKVVDMSSDEQHKKMQRIVELLKAKGPQPHLCSVYQNTRDFPFRNPSKGEGEGKRS | soluble |
| MGSDKIHHHHHHMPLVLIRKSDYSYETLKPLIFGMLDRLGGHRMAPGSRVLIKPNLLTPATPRQAILTHPFIVRAAVEYALNQNARPLVADSPAMGSFSKILRDSGIQEALAPLKVDYRPFQDSLKIDIGEPFGSIDIAREVIEADFIINLPKFKTHSQMLLTLGVKNLFGCIVGYRKPEWHMKTGVNRPLFARLLVQLYHRISPAFTILDGILALEGEGPGKRGTPKGGWPAPRQRQRPGPRQDRLPDT | not soluble |
| MSLGELPPAPSDSKRTVFLDIDETLVHVTPYPLPFVKPDATFLLQEHRRPSDPPGVSPEYLPGVSAGAAPRAALLHVYYRPFLMPFLENLLQTNRCELVAFTAALREYADPILDGIETKLGGARGSVFAARLYRQHCARAPRSKDLVHAAPSRCLSRCVLLDNSVVSLAAQLANGLLLRPFYGDPQDRELEGVLAFLLDLLEKTGDIRESMKESGMLHKVTEGHHHHHH | not soluble |
| MSKKTPLNEIAEFDVSDYLRDDEDIAEYLTQVLAEGDSNELLRAIGYIAKARGITQLAKDTGLGRESLYKAFRAGSKPQFETVFKVLHALNINLKAIPKEVVSTRV | not soluble |
| MQKVHVQYIDGETDQMLRQDDLDGYTDETIPYSTAEGIKKFEGDGYELFKDNFPAGEKFDNDDTNDQFYTVIFKHHRENVDPNHSSADGTKGTKTLTETVHYKYANGTKAAEDQTAQVTFTRNGVLDDVTGIVAWGKWNEASQSYKALTSPTIAGYAPSEAVVKRSSNSDAEQGPTLTVIYTADA | soluble |
| MGSDKIHHHHHHLEKAALILEGGALRSFFTSAVLDYFLEKQMDFEYIHGVSAGTMAAMNYISKQKRRSADVNLHFLHDKRYIGFNNLIRNGGIFNLDFLFSPECYDYSPFDYKAYNESKQIFEITATNVLTGKADIFRKTDTDGQEEAVKASASMPLVSDIRVVNHQPYLDGGIADSIPFRRAQELGYEKIVVVLTRDISYRKPENSRAMNRLVKFRYRDFPRFVQAFADRPQQYNRSLAEIERLEREGKIFVIRPQEPVSVSRVERDDKKLMALYEKGTEVIQNQFADLQKYLAQ | not soluble |
| MATAHYHGSCQCGSVSFEVDADLDHTVICNCSRCKRLGSTLAFAPREKFTLLSGEDKLSEYLFNKHKIHHFFCSTCGIESFAYADGPDGTPMVAVNANCLDGVDPRALKSQAFDGAA | not soluble |
| MAELYYEDNRAYSYTQSFLKMFYLIFGQAYSRDYLSIDKYNKLCSNKDTKIHMPKLKIDEETNIVFFSKEEMQQLDNYFKGTNVETAYLLGKYCGLRINECFGLKWDKIDLKNGTITIDRQMQYQNGMIKLVPLKTRNAKRKIYMCSKLKEYFTNLMQQQEKYKTELAELRQQKQTLIKDIQGNTISSLELVNSMPIGRMQTVNAMKYHTRTLKEKYHIDFKYHYLRHTYGTTLATLNTPEHLLCNQMGHSSSSVTHKYYIGISKQGIDELLKNLERV | not soluble |
| SHMEIVPDTSVVIDGRVSDQVKADADPDTDVDGMGFAGATVVVPEAVVGELEAQANDGRETGWEGLEELQTLVDLAEEGTIDVEYVGRRPDAIEKREAGEGQIDALIRDIAGDRDATLVTSDDVQAEVARAKGLAVEFVDPVKRTVDRLQIENFFDEG | not soluble |
| VPRIAEVRDAAEPSSEEQRARHVRMLEAAIELATEKELARVQMHEVAKRAGVAIGTLYRYFPSKTHLFVAVMVDQIDRMGVGFKKSAPPGESPQDAVYNVLVRATRGLLRRPALSTAMIQSTSTANVASVPDAGKVDRAFRQIMLDAAGIEHPTEEDLTALRLLVQLWFGVIQSCLNGRVSIPDAESDIRRACDLLLVNLSHR | soluble |
| MARDGGVSCLRRSEMMSVGGIGGIESAPLDLDEVHVLAVDDSLVDRIVIERLLRITSCKVTAVDSGWRALEFLGLDNEKASAEFDRLKVDLIITDYCMPGMTGYELLKKIKESSNFREVPVVIMSSENVLTRIDRCLEEGAQDFLLKPVKLADVKRLRSHLTKDVKLSNGNKRKLPEDSSSVNSSLPPPSPPLTISPESSPPLTVSTESSDSSPPLSPVEIFSTSPLSSPIDDEDDDVLTSSSEESPIRRQKMRSPGLD | not soluble |
| GMINQERLVNEFMELVQVDSETKFEAEICKVLTKKFTDLGVEVFEDDTMAVTGHGAGNLICTLPATKDGVDTIYFTSHMDTVVPGNGIKPSIKDGYIVSDGTTILGADDKAGLASMFEAIRVLKEKNIPHGTIEFIITVGEESGLVGAKALDRERITAKYGYALDSDGKVGEIVVAAPTQAKVNAIIRGKTAHAGVAPEKGVSAITIAAKAIAKMPLGRIDSETTANIGRFEGGTQTNIVCDHVQIFAEARSLINEKMEAQVAKMKEAFETTAKEMGGHADVEVNVMYPGFKFADGDHVVEVAKRAAEKIGRTPSLHQSGGGSDANVIAGHGIPTVNLAVGYEEIHTTNEKIPVEELAKTAELVVAIIEEVAK | soluble |
| MGSDKIHHHHHHMATETLTKSDAITQSLRAAVDRNFNDQVAFLQRMVQFRSVRGEEAPQQEWLAQQFADRGYKVDTFSLADVDIASHPKAAPMDTIDPAGSMQVVATADSDGKGRSLILQGHIDVVPEGPVDLWSDPPYEAKVRDGWMIGRGAQDMKGGVSAMIFALDAIRTAGYAPDARVHVQTVTEEESTGNGALSTLMRGYRADACLIPEPTGHTLTRAQVGAVWFRLRVRGTPVHVAYSETGTSAILSAMHLIRAFEEYTKELNAQAVRDPWFGQVKNPIKFNVGIIKGGDWASSTAAWCELDCRLGLLTGDTPQEAMRGIEKCLADAQATDSFLSENPAELVWSGFQADPAVCEPGGVAEDVLTAAHKAAFNAPLDARLSTAVNDTRYYSVDYGIPALCYGPYGQGPHAFDERIDLESLRKTTLSIALFVAEWCGLRKL | not soluble |
| MADSNSTVEQYRSLKRKMIEKKDLMRNNRTALRACILFNCLLGTSIRDAYNQFCRAVGSDVMEYREYEFWFYQFKRGDADFSDAISWNPNTIKLDELPIEVINTISSFSMPMERLTLRKVSKNLRTLIDSEPFCFQRIIVRIGHRTSYLQLDGYPGIEYIHCGADCNVLYGKRDKYVKNKNHVEYALTEAIQLMRNSNNHSKEFHVRAERSNDQELSMVLRKFFDSVEIELYAKKIVVSGFSFADTSSVLCHFKAGFLEEIQVLPGSGGPWTNVLVEMEQYKKAKVLKICTEFPVLLDIEDLLHFRRFEIAIKSDFTERMARKIRDVLTNSEHFEYAHIITQDLHHRTVIKFFNRNAENVFWNYGSMNYNNKKRLFHIEYNHRQFVIKKLNM | not soluble |
